Experimental data: patent US20070286858A1 (Pfizer, published 2007)

Molecular target: T1, soluble human streptavidin-tagged RAGE (human, UniProt Q15109 23-344)
T1 construct: also called hRAGE-SA; human RAGE-strep
Assay: BIACORE capture assay, antibody on CM5 chip, hRAGE-SA 0-100 nM in solution
Experimental: The assays were performed by coating antibodies onto a CM5 BIA chip with 5000-7000 RU.

B1: XT-M4 (antibody, rat IgG2b, V domains shown)
VH: EVQLVESGGGLVQPGRSLKLSCVVSGFTFNNYWMTWIRQTPGKGLEWVASINNSGDNTYYPDSVKDRFTISRDNAKSTLYLQMNSLRSEDTATYYCTRGGDITTGFDYWGQGVMVTVSS
VL: DIQMTQSPSSMSVSLGDTITITCRASQDVGIYVNWFQQKPGKSPRRMIYRATNLADGVPSRFSGSRSGSIYSLTISSLESEDVADYHCLEFDEHPLTFGSGTKVEIK
notes: also called 1mRAGEP3/10; rat XT-M4
In the case of B1, the Ka is reported as 2.03e+08 M⁻¹, the Kd is reported as 4.92 nM and the koff is reported as 0.0186 s⁻¹. It also gave a kon of 3.78e+06 M⁻¹ s⁻¹.
